Drawing on doi:10.1101/671792, this text covers Kd for one molecule.

This assay deals with polymerization-deficient p62 PB1 domain D69A/D73A (human) (UniProt Q13501). Briefly: ITC.

B1: MEKK3 PB1 domain, residues 43-127 (ITC) (domain or fragment)
chain: SDVRIKFEHNGERRIIAFSRPVKYEDVEHKVTTVFGQPLDLHYMNNELSILLKNQDDLDKAIDILDRSSSMKSLRILLLSQDRNH
Take B1: the dissociation constant Kd (commonly the equilibrium constant for the complex coming apart) worked out at 26.8 nM.
